From US20260069726A1, “ZWITTERIONIC COMPOUNDS AND USES THEREOF” (priority 2022, published 2026)

Experiments:
[1] = assay type: in vitro ADME, human
Protocol: (§1) Serum stability was determined using a previously published method. Aliquots of each one of the [^68Ga]Ga-DOTA-TATEs (5.0 MBq) were added to 0.4 mL human or mice serum and incubated at 37° C. Aliquots (20 μL) were taken at various time intervals (10, 30, 60, 90, 120 minutes) and quenched in ice-cold acetonitrile. The samples were centrifuged, and the supernatants were diluted further with deionized water and were analyzed by radio-HPLC (a flow rate 0.65 mL/min with a gradient of CH3CN:H2O with 0.1% TFA in both). 5.0 MBq of [^68Ga]Ga-DOTA-TATEs were prepared in 0.4 mL of PBS and used as a reference in the radio-HPLC measurement for the stability in serum study.

[2] = assay type: in vitro ADME, mouse
Protocol: as §1

[3] = assay type: physicochemical; settings: pH 7.4
Protocol: The lipophilicity of each one of the [^68Ga]Ga-DOTA-TATEs were assessed as described in the literature. In brief, two phases of 1-octanol and phosphate buffer (PBS) at a pH of 7.4 were presaturated with each other. The presaturated 1-octanol (3.0 mL) was added to 3.0 mL of presaturated PBS that had about 0.3 MBq of labelled [^68Ga]Ga-DOTA-TATEs. The mixture was vortexed for 1.0 minute at room temperature then centrifuged for 1.0 minute at 3000 RPM. 1.0 mL of each phase was taken and measured its activity in automated gamma counter. Log D7.4 was determined for at least three experiments using Equation 1 below, where CPM (count per minute) is the reading from the gamma counter.

[4] = assay type: in vitro ADME; settings: plasma
Protocol: Serum binding assay for each one of [^68Ga]Ga-DOTA-TATEs were carried out as described in the literature. Compendiously, labelled [^68Ga]Ga-DOTA-TATEs (4-3 MBq) were added to freshly prepared 0.1 mL of anticoagulated human or mice plasma and the mixtures were incubated for 120 minutes at 37° C. This was followed by addition of 1.0 mL ice-cold acetonitrile and centrifuged for 2 minutes at 3000 RPM. The addition of acetonitrile had been repeated two times and all supernatants (denoted as A) were combined and the total radioactivity was measured using automated gamma counter. The radioactivity of the precipitate (B) was measured as well. The plasma-protein binding rate was calculated using Equation 2 below (n=3).

[5] = system: AR42J (SSTR2 over-expressing) subcutaneous tumors; assay: Ex vivo biodistribution in xenograft mice two hours post injection; settings: for tumor uptake compared with the other compounds: AR42J tumor bearing mice; for tumor uptake compared with the other compounds / tumor uptake, biodistribution / tumor-to-kidney ratio: 2 hours post injection; for pharmacokinetic of healthy-tissue clearance (words, figure legend) / tumor-tissue ratios (words, figure legend): mouse, in vivo; for tumor uptake, biodistribution / tumor-to-kidney ratio: male AR42J tumor bearing mice
Protocol: (§2) The experimental protocol was approved by the University of Saskatchewan Committee on Animal Care and procedures were performed in accordance with the guidelines of the Canadian Council on Animal Care and the Canadian Nuclear Safety Commission. Aliquots of about 200 μL of each one of [^68Ga]Ga-DOTA-TATEs (7-5 MBq with <10% EtOH) were loaded to 0.5 mL syringes and >96% Radiochemical yields (RCY) were confirmed by using radio-HPLC followed by injection to healthy CD1 female mice and xenograft bearing male NOD-SCID gamma mice (USASK colony F1 005557, strain NOD.Cg-PrkdcscidIl2rg) (n=4), via tail vein catheter while in the PET scanner with image acquisition started, under anesthesia (2.5% isoflurane in O2, at a flow rate of 2 mL/min). 90-minute dynamic images of all four mice were collected simultaneously on the Sofie GNEXT PET/CT small animal imaging system using the included 4-mouse heated bed. The mice were euthanized (by cervical dislocation while they were under the effect of anesthesia) at 2 hrs post injection and blood and specific organs were harvested, weighed, and residual activity in the organs were measured by using an automated gamma counter. All images were reconstructed using VivoQuant® 2020 software (patch 1 64 bit, build vq-2020patch1-0-ga8255affc).
(§3) As done for healthy mouse studies, animals were awakened for 30 minutes following PET/CT and then euthanized at 2 hours post injection. Tissue/organ samples were collected, weighed, and the amount of activity present in the samples was measured using an automated gamma counter.

[6] = system: AR42J (SSTR2 over-expressing) subcutaneous tumors; assay: Dynamic PET/CT imaging (0-90 minutes) in tumor-bearing mice; settings: male NSG mice bearing AR42J tumors
Protocol: as §2

[7] = Ex vivo biodistribution in xenograft mice two hours post injection; settings: male, NOD-SCID gamma (NSG), mouse, in vivo, iv, total radioactivity
Protocol: as §2, §3

[8] = design: species or system healthy CD1 mice; settings: mouse, in vivo
Protocol: After imaging was complete, the mice were kept awake for an additional 30 minutes before being euthanized, bringing the total period of the injection to 2 hours. Biodistribution was performed by removing and weighing individual tissues and organs, and then measuring the activity of [^68Ga]Ga^3+ inside each sample using an automated gamma counter.

[9] = design: species or system healthy CD1 mice; settings: mouse, in vivo; remark: listed apart in the source
Protocol: Experiments were performed in healthy female mice (CD1) to determine the behavior and distribution of these compounds (pharmacokinetics). Mice were catheterized via tail vein and injected while in the scanner, and dynamic PET-CT imaging was performed from time 0 until 1.5 hours post injection (n=4 each group, 4 mice in the scanner simultaneously).

SMILES	HSS % (2 hrs.) = Human Serum Stability [1]	MSS % (2 hrs.) = Mouse Serum Stability [2]	logD [3]	fraction unbound at 120 min [4]	tumor uptake compared with the other compounds [5]	pharmacokinetic of healthy-tissue clearance (words, figure legend) [5]	tumor-tissue ratios (words, figure legend) [5]	kidney accumulation, retention and clearance seen in dynamic PET/CT [6]	tumor uptake, biodistribution [5]	tumor-to-kidney ratio [5]	tissue uptake at 2 h [7]	fraction unbound [4]	renal uptake, biodistribution [8]	start of excretion / renal elimination into the bladder [9]	tumor uptake compared with the other compounds ([5]; listed as Lys(ZW) derivative)	tumor uptake compared with the other compounds ([5]; listed as [^68Ga]Ga-DOTA-Lys(ZW)-PEG4-TATE)
C[C@@H](O)[C@H](NC(=O)[C@@H]1CSSC[C@H](NC(=O)[C@@H](Cc2ccccc2)NC(=O)CCOCCOCCOCCOCCNC(=O)[C@@H](Cc2ccc[n+](CCCS(=O)(=O)[O-])c2)NC(=O)CN2CCN(CC(=O)O)CCN(CC(=O)O)CCN(CC(=O)O)CC2)C(=O)N[C@@H](Cc2ccc(O)cc2)C(=O)N[C@H](Cc2c[nH]c3ccccc23)C(=O)N[C@@H](CCCCN)C(=O)N[C@@H]([C@@H](C)O)C(=O)N1)C(=O)O [DOTA-Pyr(ZW)-PEG4-TATE]	100%	99.6 ± 0.1%	-3.57	0.575	–	–	–	–	–	–	–	–	–	–	–	–
C[C@@H](O)[C@H](NC(=O)[C@@H]1CSSC[C@H](NC(=O)[C@@H](Cc2ccccc2)NC(=O)CCOCCOCCOCCOCCNC(=O)[C@H](CCCC[N+](C)(C)CCCS(=O)(=O)[O-])NC(=O)[C@H](CCCC[N+](C)(C)CCCS(=O)(=O)[O-])NC(=O)CN2CCN(CC(=O)O)CCN(CC(=O)O)CCN(CC(=O)O)CC2)C(=O)N[C@@H](Cc2ccc(O)cc2)C(=O)N[C@H](Cc2c[nH]c3ccccc23)C(=O)N[C@@H](CCCCN)C(=O)N[C@@H]([C@@H](C)O)C(=O)N1)C(=O)O [DOTA-(ZW2)-PEG4-TATE]	100%	100%	-3.36 ± 0.18	0.515	reduced tumor uptake	faster	improved	–	–	–	–	–	–	–	–	–
C[C@@H](O)[C@H](NC(=O)[C@@H]1CSSC[C@H](NC(=O)[C@@H](Cc2ccccc2)NC(=O)CN2CCN(CC(=O)O)CCN(CC(=O)O)CCN(CC(=O)O)CC2)C(=O)N[C@@H](Cc2ccc(O)cc2)C(=O)N[C@H](Cc2c[nH]c3ccccc23)C(=O)N[C@@H](CCCCN)C(=O)N[C@@H]([C@@H](C)O)C(=O)N1)C(=O)O [DOTA-TATE, DOTA-Tyr^3-octreotate, reference compound]	100%	100%	-2.81	–	–	–	–	rapid accumulation and protracted retention	13.8±4.6 % ID/g	0.35	38.8 ± 42.7 %ID/g	0.567	~74±51 D/g %	~70 minutes post injection	–	–
C[C@@H](O)[C@H](NC(=O)[C@@H]1CSSC[C@H](NC(=O)[C@@H](Cc2ccccc2)NC(=O)CCOCCOCCOCCOCCNC(=O)[C@H](CCCC[N+](C)(C)CCCS(=O)(=O)[O-])NC(=O)CN2CCN(CC(=O)O)CCN(CC(=O)O)CCN(CC(=O)O)CC2)C(=O)N[C@@H](Cc2ccc(O)cc2)C(=O)N[C@H](Cc2c[nH]c3ccccc23)C(=O)N[C@@H](CCCCN)C(=O)N[C@@H]([C@@H](C)O)C(=O)N1)C(=O)O [DOTA-(ZW1)-PEG4-TATE]	100%	100%	-3.39 ± 0.19	0.534	–	faster	improved	–	20.6±2.5 % ID/g	0.63	32.9 ± 19.8 %ID/g	–	–	–	greater tumor uptake	highest
